# Measured values: PMC2137936, “Molecular Analysis of Thymopentin Binding to HLA-DR Molecules” (PLoS ONE, 2007)
# No end group written: not given here.
# B1: FITC-labeled thymopentin (TP5) (peptide)
# peptide: RKDVY
# modifications: also: FITC label, position not given here
# notes: thymopentin (TP5), synthetic pentapeptide corresponding to position 32~36 of thymopoietin; also called FITC-labeled TP5; fluorescent-labeled TP5; source: synthetic peptide, conjugated with FITC (Sigma) and purified
# Molecular target: human class II major histocompatibility complex DR molecules (HLA-DR) on EBV-transformed B cells (human (endogenous in EBV-transformed B …, UniProt P01903 26-254; P01911 30-266)
# Assay: flow cytometry on cells; 3x10^5 living EBV-transformed B cells incubated with various concentrations of FITC-labeled TP5 in PBS pH 7.4 with 1% BSA, 2 h, 37°C; washed; MFI read; apparent Kd from a double-reciprocal plot of the equilibrium data
# Conditions: one partner purified
binder,measurement,value
B1,Kd,7.2 µM
